Results on 1 molecule are retold here after US5593867, “Fluorerscence polarization detection of nucleic acid amplication” (Becton, Dickinson and Company).

One series has as its target EcoRI (UniProt P00642 P00642:2-277). In words: FP; no enhancement of FP change without recognition site; EDTA buffer, 37 C. Conditions: tags: New England BioLabs; chain copies: 2.
In a further series the target is EcoRI (Gln 111) (UniProt P00642 P00642:2-277, Gln111 (cleavage-deficient; parent residue not stated)). The description is as above. Conditions: chain copies: 2.

B1: SEQ7/SEQ9 duplex lacking EcoRI site (dsDNA)
DNA 1: ATCCGTATGGTGGATAACGTCTTTCA
DNA 2: TGAAAGACGTTATCCACCATACGGAT
For the molecule B1, the binding result with EcoRI and in the series with EcoRI (Gln 111) was “no binding” throughout.
